Results taken from publication PMC12470938.

Biological target: T1, Rme1 (Trichoderma reesei) (UniProt G0RR27)
T1 sequence: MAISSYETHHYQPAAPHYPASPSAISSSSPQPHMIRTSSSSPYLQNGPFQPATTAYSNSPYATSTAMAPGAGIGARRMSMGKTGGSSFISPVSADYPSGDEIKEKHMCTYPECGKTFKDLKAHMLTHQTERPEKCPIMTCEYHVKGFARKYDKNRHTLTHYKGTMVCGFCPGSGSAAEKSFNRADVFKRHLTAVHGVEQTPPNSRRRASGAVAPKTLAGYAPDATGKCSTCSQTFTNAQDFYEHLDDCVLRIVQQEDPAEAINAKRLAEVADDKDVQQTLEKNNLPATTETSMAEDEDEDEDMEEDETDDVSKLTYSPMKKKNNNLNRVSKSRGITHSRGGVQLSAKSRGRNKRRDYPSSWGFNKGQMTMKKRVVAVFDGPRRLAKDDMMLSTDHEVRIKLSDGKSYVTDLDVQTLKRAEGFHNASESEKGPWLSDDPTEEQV
Assay: EMSA
Conditions: 20 mM Tris-HCl pH 7.4, 50 mM KCl, 5% glycerol, 1 mM DTT, 50 µg/mL BSA, 50 µM zinc sulfate; 100 ng probe, 25 min at room temperature; 6% native PAGE at 4 °C

With “AGCAGCAGCGGCAATAACAAATACAGTAACAAATGGGGACCAGAATGCGAATTTGAAACGACAGGAACGAACACGGAGGAGGGGGCGGGGGTTGGCACGTTGGCTAAAGAATATTTCTACCTATCCACAGATGTAGC (double strand) [Pswo probe]” the binding was “no binding”.
